For the assay, the target named is mouse IgM (mouse).

With “recombinant mouse polymeric immunoglobulin receptor (from UniProt O70570 19-771)”, the GSDMD level (Western blot) in primary mouse AT2 treated for 16 h with iKP + r pIgR (0.5 ug/mL) + IgM (0.5 ug/mL), compared with non-treated cells stood at 326% and the GSDMD-NT level (Western blot) in primary mouse AT2 treated for 16 h with iKP + r pIgR (0.5 ug/mL) + IgM (0.5 ug/mL), compared with non-treated cells came to 13 fold.

Values taken from article PMC12241074.
